This note sets out measurements from article PMC4811514, “MULTIMERIN2 binds VEGF-A primarily via the carbohydrate chains exerting an angiostatic function and impairing tumor growth” (Oncotarget, 2015).

For assay [1], the target named is T1, MULTIMERIN2 (UniProt Q9H8L6 23-949, glycosylated (carbohydrate chains)).
T1 construct: MULTIMERIN2 (MMRN2), the whole recombinant His-tagged molecule; also called MMRN2; the whole molecule; source: 293-EBNA cells, purified from serum-free medium (Ni-NTA resin)
T1 sequence (looked up): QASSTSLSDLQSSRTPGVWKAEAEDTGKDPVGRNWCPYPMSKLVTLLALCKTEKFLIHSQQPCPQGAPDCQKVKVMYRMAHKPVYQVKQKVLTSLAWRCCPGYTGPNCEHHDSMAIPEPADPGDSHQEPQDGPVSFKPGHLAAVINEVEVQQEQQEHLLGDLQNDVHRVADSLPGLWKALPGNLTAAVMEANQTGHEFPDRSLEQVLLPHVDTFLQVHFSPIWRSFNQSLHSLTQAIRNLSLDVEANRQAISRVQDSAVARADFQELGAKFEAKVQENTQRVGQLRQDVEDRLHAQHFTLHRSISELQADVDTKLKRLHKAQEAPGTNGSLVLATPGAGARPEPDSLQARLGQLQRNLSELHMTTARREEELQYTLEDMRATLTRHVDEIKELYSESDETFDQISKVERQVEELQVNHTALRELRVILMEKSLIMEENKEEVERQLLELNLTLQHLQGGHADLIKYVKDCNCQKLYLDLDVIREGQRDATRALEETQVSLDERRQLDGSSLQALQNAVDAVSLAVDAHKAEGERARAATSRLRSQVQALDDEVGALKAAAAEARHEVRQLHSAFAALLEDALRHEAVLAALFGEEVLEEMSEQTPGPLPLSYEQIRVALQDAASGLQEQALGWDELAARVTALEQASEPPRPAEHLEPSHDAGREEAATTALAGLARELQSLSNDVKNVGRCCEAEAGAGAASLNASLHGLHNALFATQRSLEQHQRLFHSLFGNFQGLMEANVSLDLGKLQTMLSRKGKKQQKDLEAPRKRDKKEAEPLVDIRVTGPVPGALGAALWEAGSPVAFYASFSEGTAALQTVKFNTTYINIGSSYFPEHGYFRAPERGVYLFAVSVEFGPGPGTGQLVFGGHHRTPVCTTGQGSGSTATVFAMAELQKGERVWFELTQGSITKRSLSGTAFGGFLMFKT
The assay can be described thus: SPR; Biacore X100, CM5 chip; MMRN2 immobilised by amine coupling (3150 RU); cytokines in HBS-EP buffer (150 mM NaCl), 30 μL/min, 60 seconds of contact.

Assay [2] addresses T1, MULTIMERIN2. The experiment in a line: SPR; Biacore X100, CM5 chip; MMRN2 immobilised by amine coupling; NaCl concentration of 300 mM instead of 150 mM. A general note: In SPR one partner is held on a chip, and binding of the other changes the refractive index at the surface.
Another assay deals with MMRN2 Δ2 deletion mutant (UniProt Q9H8L6). The experiment in a line: SPR; Biacore X100, CM5 chip; Δ2 fragment immobilised by amine coupling (1770 RU); VEGF-A165 in HBS-EP buffer, 30 μL/min, 60 seconds of contact.

On to “PlGF-1 (from UniProt P49763-2 19-149) (ligand)”, for which, in the assay with MULTIMERIN2 [1], the Kd turned out to be 560 nM.

In the assay with MULTIMERIN2 [1], VEGF-A121 (ligand) came in with a Kd of 200 nM. This Kd is about 2.8-fold lower than that of the molecule before.

Regarding VEGF-A145 (ligand), the dissociation constant (Kd) in the assay with MULTIMERIN2 [2] is 27 nM. This counts as double-digit nanomolar.

Regarding VEGF-A165 (ligand), the Kd with MMRN2 Δ2 deletion mutant was 430 nM.

Turning to VEGF-A189 (ligand), the Kd with MULTIMERIN2 [2] amounted to 3 nM.

As for “VEGF-C (from UniProt P49767 112-227) (ligand)”, the Kd with MULTIMERIN2 [1] was 750 nM.

B1: VEGF-D (ligand, UniProt O43915 89-205, looked up)
chain: FAATFYDIETLKVIDEEWQRTQCSPRETCVEVASELGKSTNTFFKPPCVNVFRCGGCCNEESLICMNTSTSYISKQLFEISVPLTSVPELVPVKVANHTGCKCLPTAPRHPYSIIRR
notes: vascular endothelial growth factor D; Commercial VEGF-D is usually the processed VEGF homology domain, not the whole precursor; source: bought: Peprotech
On to B1, for which, in the assay with MULTIMERIN2 [1] (both partners purified), the affinity, expressed as Kd, was 640 nM.

For orientation: Kd means the concentration at which binding is half-saturated. A higher Kd goes with weaker binding.
